Molecular target: T1, Cyt1Aa (Bacillus thuringiensis subsp. …, UniProt P0A382)
T1 chain: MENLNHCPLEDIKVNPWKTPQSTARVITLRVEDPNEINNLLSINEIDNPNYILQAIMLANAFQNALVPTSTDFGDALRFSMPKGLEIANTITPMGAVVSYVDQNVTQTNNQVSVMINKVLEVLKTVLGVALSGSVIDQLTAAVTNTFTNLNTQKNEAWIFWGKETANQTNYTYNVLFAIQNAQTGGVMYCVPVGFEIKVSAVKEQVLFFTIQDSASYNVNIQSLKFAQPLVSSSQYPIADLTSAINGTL
Test: ELISA

B1: Cry4Ba (protein)
chain: NSGYPLANDLQGSMKNTNYKDWLAMCENNQQYGVNPAAINSSSVSTALKVAGAILKFVNPPAGTVLTVLSAVLPILWPTNTPTPERVWNDFMTNTGNLIDQTVTAYVRTDANAKMTVVKDYLDQYTTKFNTWKREPNNQSYRTAVITQFNLTSAKLRETAVYFSNLVGYELLLLPIYAQVANFNLLLIRDGLINAQEWSLARSAGDQLYNTMVQYTKEYIAHSITWYNKGLDVLRNKSNGQWITFNDYKREMTIQVLDILALFASYDPRRYPADKIDNTKLSKTEFTREIYTALVESPSSKSIAALEAALTRDVHLFTWLKRVDFWTNTIYQDLRFLSANKIGFSYTNSSAMQESGIYGSSGFGSNLTHQIQLNSNVYKTSITDTSSPSNRVTKMDFYKIDGTLASYNSNITPTPEGLRTTFFGFSTNENTPNQPTVNDYTHILSYIKTDVIDYNSNRVSFAWTHKIVDPNNQIYTDAITQVPAVKSNFLNATAKVIKGPGHTGGDLVALTSNGTLSGRMEIQCKTSIFNDPTRSYGLRIRYAANSPIVLNVSYVLQGVSRGTTISTESTFSRPNNIIPTDLKYEEFRYKDPFDAIVPMRLSSNQLITIAIQPLNMTSNNQVIIDRIEIIPITQSVLDETENQNLESEREVVNALFTNDAKDALNIGTTDYDIDQAANLVECISEELYPKEKMLLLDEVKNAKQLSQSRNVLQNGDFESATLGWTTSDNITIQEDDPIFKGHYLHMSGARDIDGTIFPTYIFQKIDESKLKPYTRYLVRGFVGSSKDVELVVSRYGEEIDAIMNVPADLNYLYPSTFDCEGSNRCETSAVPANIGNTSDMLYSCQYDTGKKHVVCQDSHQFSFTIDTGALDTNENIGVWVMFKISSPDGYASLDNLEVIEEGPIDGEALSRVKHMEKKWNDQMEAKRSETQQAYDVAKQAIDALFTNVQDEALQFDTTLAQIQYAEYLVQSIPYVYNDWLSDVPGMNYDIYVELDARVAQARYLYDTRNIIKNGDFTQGVMGWHVTGNADVQQIDGVSVLVLSNWSAGVSQNVHLQHNHGYVLRVIAKKEGPGNGYVTLMDCEENQEKLTFTSCEEGYITKTVDVFPDTDRVRIEIGETEGSFYIESIELICMNE
modifications: trypsin-activated Cry4Ba, proteinase K-activated Cyt1Aa
- Kd: 47 nM
